Data reported in the Immune Epitope Database (IEDB).

How the values were obtained:
HLA-B*18:01 = assay: IEDB peptide-MHC binding, purified MHC/competitive/radioactivity; filed as Kd, often an IC50 or EC50 that approximates it; ≥ and ≤ were set here for values at or beyond the usual limits of such assays
HLA-B*44:03 = assay: as above
HLA-B*40:01 [1] = assay: as above
HLA-B*45:01 = assay: as above
HLA-B*44:02 [2] = assay: as above
HLA-B*40:02 = assay: as above
HLA-A*69:01 = assay: IEDB peptide-MHC binding, purified MHC/direct/fluorescence; filed as Kd, often an IC50 or EC50 that approximates it; ≥ and ≤ were set here for values at or beyond the usual limits of such assays
HLA-A*26:01 = assay: as above
HLA-A*01:01 = assay: as above
HLA-B*15:01 = assay: as above
HLA-A*24:03 = assay: as above; conditions: source organism: Giardia lamblia ATCC 50803
HLA-A*02:01 = assay: as above
HLA-A*03:01 = assay: as above
HLA-B*40:01 [3] = assay: as above
HLA-A*11:01 = assay: as above
HLA-B*27:05 = assay: as above
HLA-A*31:01 = assay: as above
HLA-B*58:01 = assay: as above
HLA-B*44:02 [4] = assay: as above
HLA-B*08:02 = assay: as above; conditions: source organism: Dengue virus 2 Thailand/16681/84
HLA-A*24:02 = assay: IEDB peptide-MHC binding, purified MHC/competitive/fluorescence; ≥ and ≤ were set here for values at or beyond the usual limits of such assays; conditions: source organism: Vaccinia virus
HLA-B*08:01 = assay: IEDB peptide-MHC binding, purified MHC/direct/fluorescence; filed as Kd, often an IC50 or EC50 that approximates it; ≥ and ≤ were set here for values at or beyond the usual limits of such assays; conditions: source organism: Giardia intestinalis
HLA-B*07:02 = assay: as above; conditions: source organism: Giardia lamblia ATCC 50803
[5] = source organism: Mammarenavirus guanaritoense
[6] = source organism: Giardia lamblia ATCC 50803
[7] = source organism: Mammarenavirus brazilense
[8] = source organism: Giardia intestinalis

Q: For GEKSRCYSL, which Kd (HLA-B*18:01; [5]) is on record?
A: The Kd was at least 77.5 µM.

Q: What about the Kd (HLA-B*44:03; [5]) of the same sequence?
A: The Kd was 11.9 µM.

Q: And the Kd (HLA-B*40:01 [1]; [5])?
A: The Kd was 0.488 µM.

Q: What about the Kd (HLA-B*45:01; [5]) of the same sequence?
A: Its Kd is 1.24 µM.

Q: And the Kd (HLA-B*44:02 [2]; [5])?
A: Its Kd is 2.05 µM.

Q: And the Kd (HLA-B*40:02; [5])?
A: The Kd was 0.0147 µM.

Q: For GMLSSLHTL, which Kd (HLA-A*69:01; [6]) is on record?
A: Its Kd is at least 20 µM.

Q: And the Kd (HLA-A*26:01; [6])?
A: The Kd was at least 20 µM.

Q: And the Kd (HLA-A*01:01; [6])?
A: The Kd was at least 20 µM.

Q: And the Kd (HLA-B*15:01; [6])?
A: Its Kd is 0.255 µM.

Q: And the Kd (HLA-A*24:03)?
A: Its Kd is 0.215 µM.

Q: What about the Kd (HLA-A*02:01; [6]) of the same sequence?
A: Its Kd is 0.0187 µM.

Q: And the Kd (HLA-A*03:01; [6])?
A: Its Kd is at least 20 µM.

Q: What about the Kd (HLA-B*40:01 [3]; [6]) of the same sequence?
A: The Kd was at least 20 µM.

Q: And the Kd (HLA-A*11:01; [6])?
A: The Kd was at least 20 µM.

Q: And the Kd (HLA-B*27:05; [6])?
A: The Kd was 2.7 µM.

Q: And the Kd (HLA-A*31:01; [6])?
A: The Kd was at least 20 µM.

Q: And the Kd (HLA-B*58:01; [6])?
A: Its Kd is 5.05 µM.

Q: What about the Kd (HLA-B*44:02 [4]; [6]) of the same sequence?
A: Its Kd is at least 20 µM.

Q: Which Kd (HLA-B*08:02) does the source give for RKKLKPRWL here?
A: The Kd was at least 20 µM.

Q: How did the IC50 (HLA-A*24:02) turn out when EYSKDSRNK was run?
A: Its IC50 is at least 284 µM.

Q: Which results are given for GDNEIEYGF?
A: Kd (HLA-B*18:01; [7]): 4.07 µM; Kd (HLA-B*44:03; [7]): 17 µM; Kd (HLA-B*40:01 [1]; [7]): 9.48 µM; Kd (HLA-B*45:01; [7]): 12.2 µM; Kd (HLA-B*44:02 [2]; [7]): 4.34 µM; Kd (HLA-B*40:02; [7]): 1.28 µM

Q: What does the source list for GPRRAAWRI?
A: Kd (HLA-B*08:01): ≥ 20 µM; Kd (HLA-B*07:02): 0.0617 µM; Kd (HLA-A*69:01; [8]): ≥ 20 µM; Kd (HLA-A*26:01; [8]): ≥ 20 µM; Kd (HLA-A*01:01; [8]): ≥ 20 µM; Kd (HLA-B*15:01; [8]): ≥ 20 µM; Kd (HLA-A*24:03): ≥ 20 µM; Kd (HLA-A*02:01; [8]): ≥ 20 µM; Kd (HLA-A*03:01; [8]): ≥ 20 µM; Kd (HLA-B*40:01 [3]; [8]): ≥ 20 µM; Kd (HLA-A*11:01; [8]): ≥ 20 µM; Kd (HLA-B*27:05; [8]): ≥ 20 µM; Kd (HLA-A*31:01; [8]): ≥ 20 µM; Kd (HLA-B*58:01; [8]): ≥ 20 µM; Kd (HLA-B*44:02 [4]; [8]): ≥ 20 µM
